Legend:
HLA-A*23:01 = experiment: IEDB peptide-MHC binding, purified MHC/direct/fluorescence; filed as Kd, often an IC50 or EC50 that approximates it; ≥ and ≤ were set here for values at or beyond the usual limits of such assays
HLA-A*01:01 = experiment: IEDB peptide-MHC binding, purified MHC/competitive/fluorescence; filed as Kd, often an IC50 or EC50 that approximates it; ≥ and ≤ were set here for values at or beyond the usual limits of such assays
HLA-A*02:01 = experiment: IEDB peptide-MHC binding, purified MHC/competitive/fluorescence; ≥ and ≤ were set here for values at or beyond the usual limits of such assays
HLA-A*03:01 [1] = experiment: as above
HLA-A*24:02 = experiment: as above
HLA-A*11:01 [2] = experiment: IEDB peptide-MHC binding, purified MHC/competitive/radioactivity; filed as Kd, often an IC50 or EC50 that approximates it; ≥ and ≤ were set here for values at or beyond the usual limits of such assays; conditions: source organism: Vaccinia virus WR
HLA-A*31:01 = experiment: as above; conditions: source organism: Vaccinia virus WR
HLA-A*33:01 = experiment: as above; conditions: source organism: Vaccinia virus WR
HLA-A*68:01 = experiment: as above; conditions: source organism: Vaccinia virus WR
HLA-B*15:01 [3] = experiment: IEDB peptide-MHC binding, purified MHC/competitive/fluorescence; ≥ and ≤ were set here for values at or beyond the usual limits of such assays
HLA-A*03:01 [4] = experiment: IEDB peptide-MHC binding, purified MHC/competitive/fluorescence; filed as Kd, often an IC50 or EC50 that approximates it; ≥ and ≤ were set here for values at or beyond the usual limits of such assays
HLA-B*18:01 = experiment: IEDB peptide-MHC binding, purified MHC/direct/fluorescence; filed as Kd, often an IC50 or EC50 that approximates it; ≥ and ≤ were set here for values at or beyond the usual limits of such assays; conditions: source organism: Yellow fever virus 17D
HLA-B*15:42 = experiment: IEDB peptide-MHC binding, purified MHC/competitive/fluorescence; filed as Kd, often an IC50 or EC50 that approximates it; ≥ and ≤ were set here for values at or beyond the usual limits of such assays
HLA-B*45:06 = experiment: as above
HLA-B*83:01 = experiment: as above
HLA-A*11:01 [5] = experiment: IEDB peptide-MHC binding, purified MHC/competitive/fluorescence; ≥ and ≤ were set here for values at or beyond the usual limits of such assays; conditions: source organism: Zaire ebolavirus
HLA-C*05:01 = experiment: IEDB peptide-MHC binding, purified MHC/direct/fluorescence; filed as Kd, often an IC50 or EC50 that approximates it; ≥ and ≤ were set here for values at or beyond the usual limits of such assays
HLA-B*15:17 = experiment: as above; conditions: source organism: Francisella tularensis subsp. holarctica LVS
HLA-B*57:01 = experiment: as above; conditions: source organism: Francisella tularensis subsp. holarctica LVS
HLA-B*58:01 = experiment: as above; conditions: source organism: Francisella tularensis subsp. holarctica LVS
HLA-B*35:01 [6] = experiment: IEDB peptide-MHC binding, purified MHC/competitive/fluorescence; filed as Kd, often an IC50 or EC50 that approximates it; ≥ and ≤ were set here for values at or beyond the usual limits of such assays; conditions: source organism: Francisella tularensis subsp. tularensis FSC198
HLA-B*07:02 = experiment: IEDB peptide-MHC binding, purified MHC/competitive/radioactivity; filed as Kd, often an IC50 or EC50 that approximates it; ≥ and ≤ were set here for values at or beyond the usual limits of such assays
HLA-B*35:01 [7] = experiment: as above
HLA-B*51:01 = experiment: as above
HLA-B*53:01 = experiment: as above
HLA-B*54:01 = experiment: as above
HLA-A*24:03 = experiment: IEDB peptide-MHC binding, purified MHC/direct/fluorescence; filed as Kd, often an IC50 or EC50 that approximates it; ≥ and ≤ were set here for values at or beyond the usual limits of such assays; conditions: source organism: Vibrio cholerae
HLA-B*15:01 [8] = experiment: as above; conditions: source organism: Mycobacterium tuberculosis C
[9] = source organism: Vaccinia virus Copenhagen
[10] = source organism: Sudan ebolavirus
[11] = source organism: Vaccinia virus WR
[12] = source organism: Yellow fever virus
[13] = source organism: Zaire ebolavirus
[14] = source organism: Mammarenavirus choriomeningitidis
[15] = source organism: SARS coronavirus Tor2
[16] = source organism: Vibrio cholerae RC385

HWLKVWFEW was tested, and the Kd (HLA-A*23:01; source organism: Vibrio vulnificus CMCP6) was 0.121 µM.
FTSFFYRY was tested, and the Kd (HLA-A*01:01; source organism: Influenza A virus (A/Fort Monmouth/1/1947-mouse adapted(H1N1))) was 1.28 µM.
In the case of ALKKLIIDR, the IC50 (HLA-A*02:01; [9]) is reported as ≥ 166 µM, the IC50 (HLA-A*03:01 [1]; [9]) is reported as ≥ 83.2 µM and the IC50 (HLA-A*24:02; [9]) is reported as ≥ 3610 µM. The Kd (HLA-A*11:01 [2]) was ≥ 56.4 µM, the Kd (HLA-A*31:01) was 0.00601 µM and the Kd (HLA-A*33:01) was 1.89 µM. The Kd (HLA-A*68:01) was 6.04 µM.
In the case of QLRGEELSF, the IC50 (HLA-A*02:01; [10]) is reported as ≥ 87 µM and the IC50 (HLA-B*15:01 [3]; [10]) is reported as 16.8 µM.
With LIAATAITH the Kd (HLA-A*03:01 [4]; source organism: Rickettsia felis URRWXCal2) was 0.266 µM.
VDYGLVSKF was tested, and the IC50 (HLA-A*24:02; [11]) was 3.51 µM and the IC50 (HLA-B*15:01 [3]; [11]) was ≥ 278 µM.
LEDGIYGIF was tested, and the Kd (HLA-B*18:01) was 0.118 µM, the Kd (HLA-B*15:42; [12]) was ≥ 5 µM and the Kd (HLA-B*45:06; [12]) was ≥ 5 µM. The Kd (HLA-B*83:01; [12]) was ≥ 5 µM.
For SFASLFLPK, the IC50 (HLA-A*03:01 [1]; [13]) was 0.677 µM, the IC50 (HLA-A*11:01 [5]) was 0.0815 µM and the IC50 (HLA-A*24:02; [13]) was ≥ 114 µM.
With IMLEGETKL the IC50 (HLA-A*24:02; [9]) was 47.2 µM and the IC50 (HLA-B*15:01 [3]; [9]) was 42.5 µM.
For YKACHNSEL, the Kd (HLA-C*05:01; source organism: Pisum sativum) was ≥ 20 µM.
With YGIAAHWSY the Kd (HLA-B*15:17) was 0.0032 µM, the Kd (HLA-B*57:01) was 0.259 µM and the Kd (HLA-B*58:01) was 0.0475 µM. The Kd (HLA-B*35:01 [6]) was ≤ 0.0001 µM.
In the case of GFLNEDHWF, the Kd (HLA-A*23:01; source organism: dengue virus type 2) is reported as 0.0245 µM.
LPIFSDAAL was tested, and the Kd (HLA-B*07:02; [14]) was 0.0221 µM, the Kd (HLA-B*35:01 [7]; [14]) was 0.0133 µM and the Kd (HLA-B*51:01; [14]) was ≥ 64.1 µM. The Kd (HLA-B*53:01; [14]) was 0.0641 µM and the Kd (HLA-B*54:01; [14]) was 1 µM.
Sequence TTITGDSAY has a Kd (HLA-A*01:01; source organism: Salmonella enterica subsp. enterica serovar Typhi) of 4 µM.
With LPFHRWHTMV the Kd (HLA-B*07:02; [15]) was 0.462 µM, the Kd (HLA-B*35:01 [7]; [15]) was 7.51 µM and the Kd (HLA-B*51:01; [15]) was 1.15 µM. The Kd (HLA-B*53:01; [15]) was 18.7 µM and the Kd (HLA-B*54:01; [15]) was 0.0284 µM.
With MPSEDGAEDL the Kd (HLA-B*07:02; [14]) was 1.86 µM, the Kd (HLA-B*35:01 [7]; [14]) was 0.148 µM and the Kd (HLA-B*51:01; [14]) was ≥ 69.6 µM. For the same sequence, the Kd (HLA-B*53:01; [14]) was 0.903 µM and the Kd (HLA-B*54:01; [14]) was ≥ 69.9 µM.
MMYTVSLGK was tested, and the Kd (HLA-A*03:01 [4]; [16]) was 0.0023 µM, the Kd (HLA-B*15:42; [16]) was ≥ 5 µM and the Kd (HLA-B*45:06; [16]) was ≥ 5 µM. The Kd (HLA-B*83:01; [16]) was ≥ 5 µM.
In the case of RYQAQQVEW, the Kd (HLA-A*23:01; source organism: Vibrio cholerae) is reported as 0.0046 µM and the Kd (HLA-A*24:03) is reported as 0.0016 µM.
In the case of VLSDINAVF, the Kd (HLA-B*15:01 [8]) is reported as 0.679 µM and the Kd (HLA-C*05:01; source organism: Mycobacterium tuberculosis H37Ra) is reported as 0.009 µM.
